Test results: the supplement of paper PMC11208486
± gives the uncertainty stated by the source.

Test: specific initial activity, cyclohex-2-enone reduction (U mg-1); higher = more active
Experimental: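 Specific initial activity of purified ene reductases with 10 mM cyclohex-2-enone and 0.2 mM NAD(P)H in 50 mM sodium phosphate pH 7.4 with 0-45% (v/v) ethanol or methanol, at set reaction temperatures of 25-45 °C. NAD(P)H depletion was followed at 340 nm for 480 s, in triplicate.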

MNPKYKPLFEPFTFKSGVTINNRIAVAPMTHYASNEDGTISEAELDYIIPRSKEMGMVITACANVTPDGKAFPGQPAIHDDSNIPGLKKLAQAIQAQGAKAVVQIHHGGIECPSELVPQQDVVGPSDVFDNGKQIARALTEEEVENIVKAFGEATRRAIEAGFDGVEIHGANGYLIQQFYSPKTNQRTDRWGGSDEKRLAFPLAIVDEVKKAASEHAKGAFLVGYRLSPEEPETPGLTMTETYTLVDALGDKELDYLHISLMDVNSKARRGADPTRTRMDLLNERVGNKVPLIAVGSIHSADDALAVIENGIPLVAMGREILVDPNWTVKVKEGREKQIETVIKGTDKEKYHLPEPLWQAIVNTQGWVPYKD
specific initial activity
Conditions | co-solvent: ethanol | co-solvent: methanol
co-solvent concentration (% v/v): 0, reaction temperature 25 °C | – | 0.66 ± 0.01
co-solvent concentration (% v/v): 0, reaction temperature 30 °C | – | 0.51 ± 0.07
co-solvent concentration (% v/v): 0, reaction temperature 35 °C | – | 0.25 ± 0.04
co-solvent concentration (% v/v): 0, reaction temperature 40 °C | – | 0.12 ± 0.12
co-solvent concentration (% v/v): 5, reaction temperature 25 °C | – | 0.61 ± 0.02
co-solvent concentration (% v/v): 5, reaction temperature 30 °C | – | 0.42 ± 0.05
co-solvent concentration (% v/v): 5, reaction temperature 35 °C | – | 0.2 ± 0.09
co-solvent concentration (% v/v): 5, reaction temperature 40 °C | – | 0.09 ± 0.03
co-solvent concentration (% v/v): 10, reaction temperature 25 °C | – | 0.69 ± 0.06
co-solvent concentration (% v/v): 10, reaction temperature 30 °C | – | 0.41 ± 0.03
co-solvent concentration (% v/v): 10, reaction temperature 35 °C | – | 0.14 ± 0.08
co-solvent concentration (% v/v): 10, reaction temperature 40 °C | – | 0.04 ± 0.01
co-solvent concentration (% v/v): 15, reaction temperature 25 °C | – | 0.65
co-solvent concentration (% v/v): 15, reaction temperature 30 °C | – | 0.43 ± 0.06
co-solvent concentration (% v/v): 15, reaction temperature 35 °C | – | 0.1 ± 0.07
co-solvent concentration (% v/v): 15, reaction temperature 40 °C | – | 0.02 ± 0.01
co-solvent concentration (% v/v): 20, reaction temperature 25 °C | – | 0.66 ± 0.05
co-solvent concentration (% v/v): 20, reaction temperature 30 °C | – | 0.4 ± 0.03
co-solvent concentration (% v/v): 20, reaction temperature 35 °C | – | 0.1 ± 0.02
co-solvent concentration (% v/v): 20, reaction temperature 40 °C | – | 0.03 ± 0.01
co-solvent concentration (% v/v): 25, reaction temperature 25 °C | – | 0.6 ± 0.01
co-solvent concentration (% v/v): 25, reaction temperature 30 °C | – | 0.4 ± 0.02
co-solvent concentration (% v/v): 25, reaction temperature 35 °C | 0.08 ± 0.02 | 0.05
co-solvent concentration (% v/v): 25, reaction temperature 40 °C | 0.03 ± 0.02 | 0.02 ± 0.01
co-solvent concentration (% v/v): 30, reaction temperature 25 °C | 0.63 ± 0.02 | 0.55 ± 0.05
co-solvent concentration (% v/v): 30, reaction temperature 30 °C | 0.44 ± 0.03 | 0.28 ± 0.06
co-solvent concentration (% v/v): 30, reaction temperature 35 °C | 0.04 | 0.04 ± 0.01
co-solvent concentration (% v/v): 30, reaction temperature 40 °C | 0.04 ± 0.02 | 0.03 ± 0.02
co-solvent concentration (% v/v): 35, reaction temperature 25 °C | 0.45 ± 0.03 | 0.44 ± 0.01
co-solvent concentration (% v/v): 35, reaction temperature 30 °C | 0.25 ± 0.05 | 0.21 ± 0.01
co-solvent concentration (% v/v): 35, reaction temperature 35 °C | 0.02 ± 0.01 | 0.02 ± 0.01
co-solvent concentration (% v/v): 35, reaction temperature 40 °C | 0.04 ± 0.01 | 0.02 ± 0.02
co-solvent concentration (% v/v): 40, reaction temperature 25 °C | 0.23 ± 0.04 | 0.2 ± 0.01
co-solvent concentration (% v/v): 40, reaction temperature 30 °C | 0.1 ± 0.01 | 0.11 ± 0.03
co-solvent concentration (% v/v): 40, reaction temperature 35 °C | 0.04 ± 0.01 | 0.07 ± 0.03
co-solvent concentration (% v/v): 40, reaction temperature 40 °C | 0.02 ± 0.05 | 0.03 ± 0.01
co-solvent concentration (% v/v): 45, reaction temperature 25 °C | 0.11 ± 0.02 | 0.04
co-solvent concentration (% v/v): 45, reaction temperature 30 °C | 0.06 ± 0.01 | 0.04 ± 0.01
co-solvent concentration (% v/v): 45, reaction temperature 35 °C | 0 ± 0.01 | 0.04 ± 0.02
co-solvent concentration (% v/v): 45, reaction temperature 40 °C | 0.04 ± 0.03 | 0.05 ± 0.03
